The data set relates to pulmonary fibrosis model. The data set is described as follows: Efficacy on bleomycin-induced pulmonary fibrosis model. In kind it is in vivo. More on the design: body weight of the animals (Mean ± SEM) / Weight of the left lung (Mean ± SEM) / Volume of the left lung (Mean ± SEM): unit not given here. Conditions: for Volume of the left lung (Mean ± SEM) / Weight of the left lung (Mean ± SEM): after formalin perfusion, day 14. As to the method:
Animals were anesthetized by inhaling isoflurane. After confirmation of anesthesia, the animals were sterilized, then the neck skin was cut, the muscles were bluntly separated to expose the trachea, and bleomycin (dosage: 3 mg/kg, volume: 1.0 mL/kg) was directly injected between the tracheal rings. After the operation, the animals were placed in a 37° C. electric blanket to keep warm until the animals were completely awakened. After confirming that they were able to eat and drink freely, the animals were returned to the cage for normal feeding.
In this experiment, there were four groups, i.e., model group (experimental group-1, […]), PFD group (experimental group-2, n=6), Slit2D2(C386S)-HSA-1 mg/kg (experimental group-3, n=6), and Slit2D2(C386S)-HSA-5 mg/kg (experimental group-4, n=6).
In this experiment, the positive control drug (PFD) was given to rats by gavage twice a day, which was started on the day of modeling, and administered continuously for 14 days. The test compound (Slit2D2(C386S)-HSA) was given intravenously once every other day, which was started on the day of modeling, and a total of seven doses were administered (as shown in table 6).
Physiological observation of the experimental animals: changes in body weight of the animals were measured (body weight was measured once a day before administration); and the death rate of animals during the test period was monitored.
Animals were euthanized 24 hours after the last administration on the 14th day of modeling. After confirming the death of the animals, the left lung was fixed by intrapulmonary infusion of formalin, and the volume and weight of the left lung after perfusion were measured for relevant examination of the pulmonary pathology.
General pathological examination: After the perfusion with an equal amount of formalin in the left lung, the wet weight of left lung after perfusion was weighed/recorded with a micro-balance; and the volume of left lung after perfusion was measured and recorded using a micro-measuring cup.
Pathological examination of lung tissue: The whole lung was dehydrated. Lung paraffin sections were made with paraffin blocks. […] HE staining and Masson Trichrome staining were performed according to pathological staining SOP, and whole section scanning was performed using a Digital Pathscope slice scanner. Pathological analysis and scoring of changes in damage and inflammation of terminal bronchioles and accompanying small pulmonary artery at the periphery of the lesions (as shown in Tables 7 and 8 and FIG. 7) were performed using the HE-stained sections. Lesion area calculation, lesion pathology analysis and scoring were performed with the Masson Trichrome-stained sections (as shown in Table 9 and FIG. 8).
The mean±sd or mean±sem was calculated using the graphpad prism software, and the significant difference test was performed using t-test, one-way ANOVA and two-way ANOVA test. A significant difference between the two groups was considered at p<0.05.

As to “Slit2D2(C386S)-HSA: Fusion protein of the Slit2 D2 domain with C386S mutation linked to human serum albumin; amino acid sequence SEQ ID NO: 3”, for the setting “5 mg/kg dose group, iv Q2D”, the “inhibiting pulmonary fibrosis, compared with positive compound (PFD)” value is “superior to the positive compound (PFD)”. Moreover, the “Volume of the left lung (Mean ± SEM)” value is, setting by setting: (1mpk (BID)) 1.27 ± 0.02; (5mpk (BID)) 1.32 ± 0.03. For the same substance, the “Weight of the left lung (Mean ± SEM)” value (1mpk (BID)) was determined as 1.20 ± 0.03 and the “Weight of the left lung (Mean ± SEM)” value (5mpk (BID)) came to 1.31 ± 0.07. Further, the “body weight of the animals (Mean ± SEM)” value is reported as 273.8 ± 3.1 (1mpk Q2D iv, Day 1); 255.2 ± 3.2 (1mpk Q2D iv, Day 3); 262.8 ± 4.7 (1mpk Q2D iv, Day 5); 276.7 ± 5.4 (1mpk Q2D iv, Day 7); 290.7 ± 6.3 (1mpk Q2D iv, Day 9); 302.7 ± 6.9 (1mpk Q2D iv, Day 11). Further, the “body weight of the animals (Mean ± SEM)” value turned out to be 310.3 ± 7.8 (1mpk Q2D iv, Day 13); 272.7 ± 1.8 (5mpk Q2D iv, Day 1); 251.8 ± 2.3 (5mpk Q2D iv, Day 3); 245.0 ± 5.0 (5mpk Q2D iv, Day 5); 258.3 ± 4.4 (5mpk Q2D iv, Day 7); 272.5 ± 5.0 (5mpk Q2D iv, Day 9). Besides, the “body weight of the animals (Mean ± SEM)” value runs as follows: (5mpk Q2D iv, Day 11) 284.3 ± 5.9; (5mpk Q2D iv, Day 13) 292.2 ± 5.6. In addition, under “intravenous, every other day for 2 weeks, 1 and 5 mg/kg”, the “inhibition on the progression of pulmonary fibrosis” value is “significant inhibition on the progression of pulmonary fibrosis, with a dose-dependent trend”.
